Test results taken from the nanobody polyreactivity screen of Harvey et al. (2022).

Assay: yeast display, Sf9 membrane polyspecificity reagent, FACS + sequencing; frameworks hold sequencing errors
In short: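 Nanobodies from a synthetic yeast display library (Saccharomyces cerevisiae BJ5465), induced 36–48 hours with galactose, were stained 1 hour at 4 °C with 10% biotinylated, detergent-solubilized Sf9 membrane reagent, enriched on streptavidin microbeads, then FACS-sorted. Anti-HA (expression) and streptavidin (reagent binding) fluorescence set low and high (top ~1%) gates. Polyreactivity labels come from the gate of origin. Genes were colony-PCR amplified, MiSeq 2 × 250 sequenced and filtered by CDR length.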

Sequence	polyreactivity (PSR sort gate)
QVQLVESGGGLVQAGGSLRLSCAASGLTFKINAMGWYRQAPGKERELVAAIRSSGGRTYADSVKGRFTISRDNAKNTVYLQMNSLKPEDTAVYYCNKSPGYRSGRAVLYDYWGQGTQVTVSS	low polyreactivity
QVQLVESGGGLVQAGGSLRLSCAASGRTFGWYTMGWYRHAPGKERELVAAISRSGTSTYYADSVKGRFTISRDNAKNTVYLQMHSLKPEDTAVYYCAQYVNARGGNDWGQGTLVTVSS	high polyreactivity
QVQLVESGGGLVQAGGSLRLSCAASGFTRIYAMGWYRQAPGKERELVAAISQRGGRTYYADSVKGRFTISRDNAKNTVYLQMNSLKPEDTAVYYCNADRRSYNYPEYEYDYWGQGTQVTVSS	high polyreactivity
QVQLVESGGGLVQAGGSLRLSCAAYGRIFDNNAMGWYRQAPGKERELVAAIDWRGGSTDYADSVKGRFTISRDNAKNTVYLQMNSLKPEDTAVYYCVAGHVPYWHGNSYDYWGQGTQVTVSS	low polyreactivity
QVQLVESGGGLVQAGGSLRLSCAASGSIFDYNAMGWYRQAPGKERELVAAITYSGGTTYADSVKGRFTISRDNAKNTVYLQMNSLKPEDTAVYYCAATSYARFAYYYWGQGTQVTVSS	low polyreactivity
QVQLQESGGGLVQAGGSLRLSCAASGSISSRDAMGWYRQAPGKEREFVATIASGTTTYYADSVKGSFTISRDNAENTVYLQTYRLKPEDTAVYYCAAPTIQIYPFYYWGQGTQVNVSS	high polyreactivity
QVQLVESGGGLVQAGGSLRLSCAASGGTFAFNAMGWYRQAPGKERELVATIRYSGGSTYADSVKGRFTISRDNAKNTVYLQMNSLKPEDTAVYYCAASGYYIFSWRYDYWGQGTQVTVSS	low polyreactivity
QVQLVESGGGLVQAGGSLRLSCAASGSILRTYTMGWYRQAPGKERELVAAISSSGGRTYYADSVKGRFTISRDNAKNTVYLQMNSLKPEDTAVYYCNAAYTTWRRGPMNYWGQGTQVTVSS	high polyreactivity
QVQLVESGGGLVQAGGSLRLSCAASGRTLWYYTMGWYRQAPGKERELVAVISTSGGRTYYADSVKGRFTISRDNAKNTVYLQMNSLKPEDTAVYYCAADGFQYTLGNYYWGQGTQVTVSS	high polyreactivity
QVQLVESGGGIVQAGGSLRLSCAASGNIFHQNAMGWYRQAPGKERELVAAISGSAGSTYYADSVKGRFTISRDNAKNTVYLQMNSLKPEDTAVYYCAADYYWLYNYWGQGTQVTVSS	high polyreactivity
QVQLVESGGGLVQAGGSLRLSCAASGRTFFVYAMGWYRPAPGKERELVASITLSGGSTYYADSVKGRFTISRDKAKNTVYLQINSLKREDTAGYYCAKGWSRDNDLEREDEYWGHGTQVTVSS	low polyreactivity
QVQLVESGGGLVQAGGSLRLSCAASGLTFRYYAMGWYRQAPGKERELVAAITRGARTNYADSVKGRFTISRDNAKNTVYLQMNSLKPEDTAVYYCNAGFTGLHRYGYWGQGTQVTVSS	high polyreactivity
QVQLVESGGGLVQAGGSLRLSCAASGIIFDYNAMGWYRQAPGKERELVAAITSTDNTNYADSVKGRFTISRDNAKNTVYLQMNSLKPEDTAVYYCNTDYLLCVVYAMDYCGQGTQVTVSS	low polyreactivity
QVQLVESGGGLVQAGGSLRLSCAASGSTFDTYAKGWYRQAPGQERELVAAISYRGGNTYYADSVKGRFTISRDNAKNTVYLQMNSLKPEDTAVYYCNAGVSIGRSRRYDYWGQGTHVTVSS	low polyreactivity
QVQLVESGGGLVHAGGSLRLSCAASGRIFTYYGMGWYRQAPGKERELVAAITWNGGSTYYADSVKGRFTISRDNAKNTVYLQMNSLKPEDTAVYYCNAVVYARSGGAQYGYWGQGTQVTVSS	low polyreactivity
QVQLVESGGGLVQAGGSLRLSCAASGFTFSGYDMGWYRPAPGKERELVAGISSGGVSTTYADSVKGRFTISRDNAKNTVYLQMNSLKPEDTAVYYCNAEWTSFDWGQGTQVTVSS	low polyreactivity
QVQLVESGGGLVQAGGSLRLSCAASGRTFIPYAMGWYRQAPGKERELVATIRRGGSTYYADSVKGRFTISRDNAKNTVYLQMYSLKPEDTAVYYCAATRYSFGPRRVDYWGQGTQVTVSS	high polyreactivity
QVQLVESGGGLVQAGGSLRLSCAASGIIFAYNAMGWYRQAPGKERELVAAISVIGGTTYYADSVKGRFTISRDNAKNTVYLQMHSLKPEDTAVYYCAVDSVQYGGGYERLHELYYWGQGTQVTVSS	low polyreactivity
QVQLVESGGGLVQAGGSLRFSCAASGSIFQPYAMGWSRQAPGKERAFVAAISRSGGITYYADSVKGRFTISRDNAKNTVYLQMNSLKPEDTAVYYCAADYILWKGSNSYYYAGYYYWGQGTQVTVSS	low polyreactivity
QVQLVESVGGLVQAGGSLRLSCAASGRIFYFYAMGWYRQAPGKERELVASISSGSSTNYADSVKGRFTISRDNAKNTVYLQMNSLKPEDTAVYYCAAQPWHGSRPRSYYWGQGTQVTVSS	high polyreactivity
QVQLVESGGGIVQAGGSLRLSCAASGNNFSLNGMGWYRQAPGKEREFLAAITWSVGSTYYAYSVNGRLTISRDNAKNTVYLQMNSLKPEDTAVYDCAATVSDLYKNEYYYWGLGTQVTVSS	low polyreactivity
QVQLVESGGGLVQAGGSLRLSCAASGFTFNEYAMGWYRQAPGKERELVAAITWGGASTYYADSVKGRFTISRDNAKNTVYLQMNSLKPEDTAVYYCVFVYVYDYYYWGQGTQVTVSS	high polyreactivity

Sequence	polyreactivity (PSR sort gate)
QVQLVESGGGLVQAGGSLRLSCAASGSIFLKYTMGRYRQAPGKERELVAAITSGGTTNYADSVKGRFTISRDNAKNTVYLQMNSLKPEDTAVYYCARDSYQLGLIRDPLEYDYWGQGTQETVSS	low polyreactivity
QVQLVESGGGLVQAGGSLRLSCAASGSTFYAYAMGWYRQAPGKERELVARIRWRGGRTYYADSVKGRFTISRDNAKNTVYLRMNSLKPEDTAVYYCNRGYYSYYGRYYYWGQGTQVTVSS	high polyreactivity
QVQLVESGGGLVQAGGSLRLSCAASGRIFGWYTMGWYRQAPGKERELVADINFGGSTYYADSVKGRFTISRDNAKNTVYLQMNSLTPEDTAVYYCNADYSVYIIADEYDYCGQGTQVTVSS	low polyreactivity
QVQLVESGGGLVQAGGSLRLSCAASGFTFNAMGWYRQAPGKERELVARIDSDDTTNYADSVKGRFTISRDNAKNTVYLQMNSLKPEDTAVYYCNKDYAWLSYQHYDYWGQGTQVTVSS	low polyreactivity
QFQLVESGGGLVQAGGSLRLSCAASGSTYSYYAMGWYRQAPGKERELVAAISSRGGSTYYADSVKGRFTISRDNAMNTVYLQMNSLKPEDTAVYYCNADHQFRSSVSGDHDYWGQGTQVTVSS	high polyreactivity
QVQLVESGGGLVQAGGSLRLSCAASGRTFSGNAMGWYRQAPGKEREMVAAITGRGGTTYYADSVKGRFTISRDNAKKTVFLQMNSLKPEDTAVYYCAADTKLSYQWFDYWGQGTQVTVSS	high polyreactivity
QVQLVESGGGLVQAGGSLRLSCAASGGIFIANAMGWYRQAPGKERELVAAISSSGGSTYYADSVKGRFTISRDNAKNTVYLQMNSLKPEDTAVYYCNKLLTRSYRTYGRYGYWGQGTQVTVSS	high polyreactivity
QVQLVESGGGLVQAGGSLRLSCAASGRTFYYYAMGWYRQAPGKERELVARISYSGSNTYYADSVKGRFTISRDNAKNTVYLQMNSLKPEETAVYYCAAGYLVWRDSATLDYWGQGTQVTVSS	high polyreactivity
QVHLVESGGGLVQAGGSLRLSCAASGSTFGLNAMGWYRQAPGKERELVAAITRSDITNYADSVKGRFTISRDNAKNTVYLQMNSLKPEDTAVYYCNKTPDRHRRYFGYGYWGQGTQVTVSS	low polyreactivity
QFHLVESGGGLVQAGGSLRLSCAASGSNILYYVMGWYRQAPRKERELVAAITWDGGSTYYADSVKGRFTISRDNAKNTVYLELNSLIPEDTAVYYCNKVTTYSYYTEPYEYWGQGTQVTVSS	low polyreactivity
QVQLVESGGGLVQAGASLRLSCAASGSIFKDNAMGWYRQAPGKERELVAAISWNGGSTYYADSVKGRFTISRDNAKNTVYLHMNSLKPEDTAVYYCATRIYGWSFGSWYKYDYWGQGTQVTVSS	low polyreactivity
QVQLVESGGGLVQAGGSLRLSCAASGLTFKRYAMGWYRQAPGKERELVASITGNGGSTYYADSVKGRFTISRDNAKNTVYLQMNSLIPEDTAVYYCNSRRYVRTSQQPLYDYWGQVTQVTVSS	high polyreactivity
QVQLVESGGGLVQAGGSLRLSCAASGRTFISNTMGWYRQAPGKERELVAALSGSGGSTYYADSVKGRFTISRDNAKNSVYLNMNRLKPEDTAVYYCNAPYVRQTRFGQSVRNNYWGQGTQVTVSS	high polyreactivity
QVQLVESGGGLVQAGGSLRLSCAASGRISTFYAMGWYRQAPGKERELVAGIRWRGGSTYYADSVKGRFTISRDNAKNTVYLQMNSLKAEDTAVYYCYSMDYWGQGTQVTVSS	high polyreactivity
QVQLVESGGGLVQAGGSLRLSCAASGSLFGRYTMGWYRQATGKDREFVAAIDRVGITNYADSVKGRFTISRDNAKNTVYLQMNSLKPEDTAVYYCAADYGAIRPRDFIEVPGHYDYWGQGTQVTVSS	low polyreactivity
QVQLVESGGGLVQAGGSLRLSCAASGSIFSDYAMGWYRQAPGKERELVAGISSGGGTTYADSVKGRFTISRDNAKNTVYLQMNSLIPEDTAVYYCNKQDQPVGRSGYPYGYDYWGQGTQVTVSS	low polyreactivity
QVQLVESGGGLVQAGGSLRLSCAASGLTFSPNAMGWYRQAPRKERELVAAISSSGGRTNYADSVKGRFTISRDNAKNTVYLQMNSLKPEDTAFYYCAARFYKTYPRMNYWGQGTQVTVSS	high polyreactivity
QVQLVESGGGLVQAGGSLRLSCAASGSTFVPYAMGWYRQAPGKERELVAVITRGSTNYADSVKGRFTISRDNAKNTVYLQMNRLKPEDTAVYYCAVDVARGVLDYSFDSWGQGTQVTVSS	high polyreactivity
QVQLVESGGGLVQAGGSLRLSCAASGRTFAKYGMGWYIQAPGKERELVAAIDYSGGSTYYADSVKGRFTISRDNAKNTVYLQMNSLKPEDTAVYYCAADYFWLYYSEYGYWGQGTQVTVSS	low polyreactivity
QVQLVESGGGLVQAGGSLRLSCAASGFIFRKYAMGWYRQAPGTERELVAAIRQRGGTTYYADSVKGRFTISRDNAKNTVSLQMNSLKPEDTAVNYCAAPYSSAYKYDYWGQGTQVTVSS	high polyreactivity
QVQHVESGGGLVQAGGSLRLSCAPSGSIFRPYAMGWSRQAPGKEMELVAAISFSGAGTYYADSVKGRFTISRDNAKNTVYLQMNSLTPEDTAVYYCNARRYTTYWLLYEYDYWGQGTQVTVSS	low polyreactivity
